This is an account of results in PMC3902126.

Assay [1] concerns the target Brucella abortus RicA (Rab2 interacting conserved protein A), His6-RicA (1-175) (Brucella abortus). Description: ITC.
The target is the same in assay [2]. Description: ITC. This is another data set of the same source. Background: ITC needs no label: the signal is the heat of the interaction.

Read-outs that look alike come from different tables or passages of the source.

In general, Kd refers to the equilibrium constant for the complex coming apart. Turning to “Homo sapiens Rab2 (1-212) (from UniProt P61019 1-212) (natural protein)”, the Kd was found to be 36 µM in assay [1] and 40 µM in assay [2].
